B1: TPR t1 (parent)
chain: GACCAAUCUGCCCUCAGAGCUCGAGAACAUCUUCGGAUGCAGAGGAGGCAGGCUUCGGUGGCGCGAUAGCGCCAACGUCCUCAACCUCCAAUGCAUCCCACCACAUGAUGAUGCCUGAAGAGCCUUGGUUUUUUG

Variants of: B1
Assay: polymerase ribozyme fitness, log enrichment relative to wild type (log ratio); higher = more active; in vitro selection for triplet polymerase activity
Outline: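 To select mutant libraries of each subunit of a heterodimeric triplet polymerase ribozyme, built by PCR and transcribed, each was annealed with a biotinylated primer, partner subunit and triplets, then incubated frozen at −7 °C. Extended constructs were gel-excised, captured on streptavidin beads and amplified by RT-PCR, in one round carried out in triplicate. Illumina sequencing of input and output libraries kept genotypes with ≥10 input reads and ≥1 read per output. Fitness is the base-2 logarithm of genotype enrichment relative to wild-type enrichment, from inverse-variance-weighted replicate averages.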

Variant | polymerase ribozyme fitness (log ratio)
C15A A27C U55G A111U | -6.51
C15A A37C C49A C72G | -2.75
C15A U59A | -2.31
C15U A37G C70U A100U A121C C123U | -1.4
C15U C124A | 0.552
C15U G36C A50C C72U C124G | -0.154
C15G U96C G117C U130G | 0.208
C15A A37G G45U G93U U112C G122C C123G U125A | -5.64
C15A G77U G122A C123A | -2.19
C15G C20A G69U U81A C124A | -1.08
C15A C101U U112A | -1.08
C15U G23U G47A C49U C62U G65A A111C | -6.66
U14G G52A G93A | -3.09
U14G C70G | -3.6
C15A G52C G63U G93U C97U | -5.64
U14G G71U G93U A105U | -6.14
C15A G17A C73G U112A | -4.93
C15A C40A C70A C97U G120U | -5.14
C15A C76A | -2.53
C15A U129A | -3.18
C15A G52A G60A U112C U116C | -3.35

Variant | polymerase ribozyme fitness (log ratio)
C15G C53U C85G | -4.35
C15A G135U | -2.9
C15A C123U | -1.1
C15A C123A | -1.02
C15U C94A | -2.56
C15A G47C U133C | -3.12
C15A C70G | -3.97
C15U A41G G52U C62U A119U | -2.59
C15G G61U U78C C101A | -3.49
C15U G39A G60A G117C G120A | -4.8
U14G C89A C99G G113C C115U | -7.29
C15A U59A U126A | -4.53
U14G C89G | -3.56
C15U C76A U87A C101G | -4
U14G U125A | -2.09
C15U C72U G110C | -5.35
C15A C56A G117U | 0.157
U14G U55C C70A G135U | -4.4
C15A C40U G120C | -0.554
C15U A18U C31A G39U U54A C72U C114U C115G | -6.25
C15G U32C C49U U87G | -3.89

Variant | polymerase ribozyme fitness (log ratio)
C15U C99U | -3.99
C15U C34A G60C C76U C82G A105G G113U | -6.4
C15U C28U C89A C123A | -5.8
C15A A29U C73U C115U U131A | -2.29
C15A A43G U96C U112C | -2.05
C15U A37G C53G U129C | -2.67
C15U C49A C62U U116A A121C U131G | -3.93
C15G G19A C73U U112A G122U | -3.84
C15G G71U | -1.94
C15U C72A C85G C102A | -3.1
C15A G71A | -2.63
C15A G45U G61U A84U C123U | -2.78
C15G C49U U106A | -3.74
C15A U133G | -3.68
C15U C70U U81A G113A G117A | -4.22
C15G A118U C123U | -0.83
C15A C73G | -3.16
C15G G117A | -1.61
U14G C62U | -1.97
C15U C34U | -4.93
U14G G45C | -3.41

Variant | polymerase ribozyme fitness (log ratio)
C15G G36A | -4.46
C15U C64U | -1.59
C15G U38C C124G | 0.313
C15U C70G C97U | -3.09
C15G G69U C94A U109A C124A | -4.14
C15G C40A C76G G77C G117C | -0.354
C15G G39U C72A | -3.5
U14G C85G A95C C101G | -6.61
C15U A18U C49G C72A U92C | -5.58
C15A G42A C56A G69U A100C U132A | -4.53
C15G G52A | -2.6
U14G G48A C104A | -3.69
C15U A16C G93C C123U U126C | -2.73
C15U C56G | -2.76
C15U C56A | -1.78
C15G A66U | -4.55
C15A U87G A91C U112C G128C G135U | -5.85
U14G C73U A90G C124A | 1.54
C15U C123G | 0.228
C15U G45A C56A G77C C88G G117C C123U | -4.21
C15U C115A | -1.57

Reference: the RNAGym collection of RNA variant scans (doi:10.1073/pnas.2313332121)
